The Human Domainome abundance scans (Beltran et al. 2025)
± gives the uncertainty stated by the source.

B1: Zinc finger homeobox protein 3, residues 2244 to 2299; numbered along this chain, Q15911 (parent)
chain: SSRTRFTDYQLRVLQDFFDANAYPKDDEFEQLSNLLNLPTRVIVVWFQNARQKARK

Variants of: B1
Experiment: abundance fitness (aPCA) (normalised: wild type 0, dead -1); higher = more abundant; growth selection in yeast, the domain comes from the species named
Settings: Homo sapiens

Variant	abundance fitness
L36C	-0.313 ± 0.12
F17N	-0.125 ± 0.16
K56D	-0.026 ± 0.23
Y23Q	-0.011 ± 0.1
Q52T	-0.036 ± 0.07
E28R	-0.481 ± 0.088
L11S	0.062 ± 0.089
V45E	0.244 ± 0.1
N21S	-0.157 ± 0.099
P39L	-0.786 ± 0.091
F29T	-0.27 ± 0.13
N37G	-0.046 ± 0.076
I43C	-0.36 ± 0.17
A22T	0.01 ± 0.077
P39H	-0.149 ± 0.082
N37T	-0.179 ± 0.13
E28K	-0.422 ± 0.13
K25A	-0.075 ± 0.095
Q31G	-0.055 ± 0.085
A50V	-0.322 ± 0.08
T4Q	-0.08 ± 0.16
Q52H	-0.092 ± 0.08
P39E	-0.06 ± 0.15
Y23N	0.013 ± 0.16

Variant	abundance fitness
S1E	0.181 ± 0.42
N34M	-0.024 ± 0.4
F6G	-0.633 ± 0.1
S2A	-0.353 ± 0.12
F17V	-0.124 ± 0.087
L32G	-0.842 ± 0.083
V45C	0.088 ± 0.097
R55G	-0.128 ± 0.11
A50P	-1.01 ± 0.11
K56F	-0.089 ± 0.24
D26Q	-0.188 ± 0.22
R3D	0.505 ± 0.13
N49M	-0.287 ± 0.15
Q10C	-0.764 ± 0.17
D27L	-0.17 ± 0.074
D27W	-0.157 ± 0.082
A50H	-0.253 ± 0.095
F17T	-0.074 ± 0.12
F47E	-0.762 ± 0.2
V13S	-0.048 ± 0.088
F29I	0.071 ± 0.13
Q31P	-0.764 ± 0.24
V45P	-0.21 ± 0.076
V44D	0.121 ± 0.19

Variant	abundance fitness
V44Y	-0.571 ± 0.21
A50Q	-0.197 ± 0.12
R12E	-0.422 ± 0.18
S33G	-0.083 ± 0.075
W46A	-0.86 ± 0.15
Q48I	-0.085 ± 0.17
T7K	-0.272 ± 0.16
T4K	-0.661 ± 0.15
D26K	-0.1 ± 0.19
F17P	-1.08 ± 0.23
F18N	-0.733 ± 0.29
F18V	-0.435 ± 0.084
K25G	-0.14 ± 0.085
F6I	-0.164 ± 0.078
F6N	-0.52 ± 0.1
D26T	0.021 ± 0.12
N37R	-0.057 ± 0.075
A22D	0.219 ± 0.093
R41L	-0.075 ± 0.074
I43F	-0.792 ± 0.24
S33K	-0.129 ± 0.18
F17W	-0.214 ± 0.11
T4Y	-0.198 ± 0.28
A20T	-0.044 ± 0.086

Variant	abundance fitness
L14C	-0.508 ± 0.15
S1D	0.137 ± 0.34
R55S	0.142 ± 0.075
Q10H	-0.563 ± 0.16
A50W	-0.496 ± 0.13
F17K	0.011 ± 0.13
F29Y	-0.052 ± 0.15
N34S	0.066 ± 0.16
L36F	-0.659 ± 0.19
I43V	-0.056 ± 0.1
L11G	-0.171 ± 0.09
T4H	-0.072 ± 0.19
D19S	-0.299 ± 0.24
K53H	0.013 ± 0.081
E30S	-0.135 ± 0.4
N37E	-0.034 ± 0.1
K25T	-0.161 ± 0.11
S2Y	0.097 ± 0.15
S33H	-0.085 ± 0.17
Q15R	-0.213 ± 0.078
N37Q	-0.12 ± 0.15
R5W	0.234 ± 0.097
K56H	-0.053 ± 0.12
S1W	-0.939 ± 0.21

Variant	abundance fitness
Q15W	-0.213 ± 0.099
A22Q	-0.127 ± 0.087
R5L	0.197 ± 0.072
F17D	-0.876 ± 0.18
V45M	-0.142 ± 0.083
Y9E	-0.007 ± 0.11
D26E	-0.214 ± 0.14
R3L	0.439 ± 0.095
R12G	-0.238 ± 0.11
A50L	-0.159 ± 0.073
R12Q	0.045 ± 0.1
T4A	-0.883 ± 0.17
S2N	0.007 ± 0.16
R12K	0.169 ± 0.24
R51S	-0.256 ± 0.28
L35C	-0.176 ± 0.13
R51G	-0.606 ± 0.43
E28G	-0.488 ± 0.1
R5E	0.321 ± 0.096
F29A	-0.362 ± 0.09
K56R	-0.028 ± 0.12
D8I	-0.641 ± 0.25
Q52S	-0.023 ± 0.068
D16E	-0.129 ± 0.11

Variant	abundance fitness
I43T	-0.396 ± 0.12
S2E	0.182 ± 0.15
L36V	0.024 ± 0.098
A20R	0.075 ± 0.081
R41S	0.021 ± 0.073
L35K	0.201 ± 0.14
Q10N	-0.76 ± 0.19
D26L	-0.307 ± 0.11
R5A	0.213 ± 0.071
F47S	-0.75 ± 0.084
F47H	-0.534 ± 0.12
K56M	-0.045 ± 0.22
F18T	-0.772 ± 0.14
V45W	-0.136 ± 0.1
Q31D	-0.193 ± 0.39
L35R	0.085 ± 0.083
S33R	-0.05 ± 0.077
A20N	0.24 ± 0.23
F29R	-0.324 ± 0.078
Q15G	-0.01 ± 0.073
T4L	-0.116 ± 0.11
V13W	-0.794 ± 0.14
F17S	-0.025 ± 0.11
D26G	-0.247 ± 0.096

Variant	abundance fitness
P24W	-0.381 ± 0.19
P39S	0.035 ± 0.073
Q15K	-0.243 ± 0.18
K25W	-0.512 ± 0.13
A50C	-0.047 ± 0.093
Q31W	-0.279 ± 0.1
P39R	-0.258 ± 0.082
L36P	-1.06 ± 0.25
D26M	0.018 ± 0.2
V42L	0.039 ± 0.099
T40H	-0.127 ± 0.097
N37M	-0.038 ± 0.12
P24N	-0.922 ± 0.28
N21A	-0.428 ± 0.1
R55M	-0.211 ± 0.16
D16A	-0.353 ± 0.11
Y23V	-0.099 ± 0.075
D19K	-0.164 ± 0.27
N21W	-0.722 ± 0.14
L32W	-0.56 ± 0.1
Q15M	-0.155 ± 0.13
W46F	-0.244 ± 0.19
A50N	0.009 ± 0.097
